Results: a protein production outcome set (Wang et al. 2014)

Experiment: label from the status in PepcDB records

Question: Which protein production does the source give for “MKILVTSGGTSEAIDSVRSITNHSTGHLGKIITETLLSAGYEVCLITTKRALKPEPHPNLSIREITNTKDLLIEMQERVQDYQVLIHSMAVSDYTPVYMTGLEEVQASSNLKEFLSKQNHQAKISSTDEVQVLFLKKTPKIISLVKEWNPTIHLIGFKLLVDVTEDHLVDIARKSLIKNQADLIIANDLTQISADQHRAIFVEKNQLQTVQTKEEIAELLLEKIQAYHS” here?
Answer: The protein production was “not failed”.

Question: For “QSLELGTMQPSFTSVTGKGGVKVIDGSSVKFGRFDGAEPHCVGLTDLVTEQDGSSMAAGFMQWDNAFFPWTLNYDEIDMVLEGELHVRHEGETMIAKAGDVMFIPKGSSIEFGTPTSVRFLYVAWPANWQSV”, which protein production is on record?
Answer: The protein production was “not failed”.

Question: Which protein production does the source give for “MAKAFEEQRRSPDLEALPFEDRIGLLVDREAAERDTRRLTTRLKIAALRQTACVEDVDLRTPRGIDRAVFAKLVEGRWIDRHENLLVTGATGLGKSWLACALGHKACRDNRSVLYHRVPRLFEALALARGDGRYARLLKSLGRAQLLILDDWGLSVLTAAERRDLLEILEDRHGRASTIVTSQLPWTPGMEPLGTPRSPTPFSIASSTTPTASSSPEKACENAAPKPSPLTANQNTDSISHRPLEHHHHHH” here?
Answer: Its protein production is “failed”.

Question: Which protein production does the source give for “MLESFGEHRWLLWAVASAVLACTEMLSGEFTLLMLAAGAGAGAITAAIVPGMWLLQVIVAAVVAALLLTVLRPTLLRRVREAPGYRSALDKLVGSDGVATSDITDGHGQVKVDGEEWSARALEPGSTIAAGEKIEVYEIDGATLVVYPVFRSLSS” here?
Answer: Its protein production is “failed”.

Question: With “EVALRHPQSPKPCLIGNCQGGWAILTLMAANPDVAGVAVVNGAPLSYWGGENGKNPMRYIGGIWGGSWIAQMAGDLGNGKFDGANLVMNFEMANPKVTYWSKYYNLFANLDKEEIRFLNFERWWGGFSLLNVNEMRGIIDNLFIGNKLVHGKIPLGQSGNNLDLRNISVPVIIFCSEGDNITPPQQALNWVSDLYSNTLEIKLDGQVIVYLIHKSVGHLGIFVSSEVAKKEHNQIIDLLN” as the sequence, how does the protein production read?
Answer: Its protein production is “not failed”.

Question: For “MSKFTDRIKNVFTVDYDDYDEDYYDDYEDDDMGLEPEKPEKKERATKSRSERFSARRAATRSDDDIIDDYDEVTAEHEEEPAPHVKTRATARAVKNSRSSRNHKVVPMKSSSEMEVCVIKPSYYENTRDIIDTLLEGKSVVLNLEGMKLDLAQRIVDSVSGGCYAIQGNLQKISGYIYLVTPHSVDITGDFQDLVHDSSDYSSTAYSRRNY”, which protein production is on record?
Answer: Its protein production is “failed”.

Question: For “MALVYLVQSDTTIGLLSKDSEKLNALKGRPKNQSVLIESADFSTLKSLVRAPNAFKNLIRRSAKTTFIYPNSKAVRVIRGRHGDFLNRFKTLYSTSANLTQCAYDKEIASNLADVIVSDERGLFESSSSKIFRLYKDKKVRIR”, which protein production is on record?
Answer: The protein production was “failed”.

Question: For “MLLSIITVAFRNLEGIVKTHASLAHLAQVEDISFEWIVVDGGSNDGTREYLENLNGIFNLRFVSEPDNGIYDAMNKGIAMAQGKFALFLNSGDIFHQNAANFVRKLKMQKDNVMITGDALLDFGDGHKIKRSAKPGWYIYHSLPASHQAIFFPVSGLKKWRYDLEYKVSSDYALAAKMYKAGYAFKKLNGLVSEFSMGGVSTTNNMELCADAKKVQRQILHVPGFWAELSWHLRQRTTSKTKALYNKV”, which protein production is on record?
Answer: The protein production was “failed”.

Question: For “MTDESSVRTPKALPDGVSQATVGVRGGMLRSGFEETAEAMYLTSGYVYGSAAVAEKSFAGELDHYVYSRYGNPTVSVFEERLRLIEGAPAAFATASGMAAVFTSLGALLGAGDRLVAARSLFGSCFVVCSEILPRWGVQTVFVDGDDLSQWERALSVPTQAVFFETPSNPMQSLVDIAAVTELAHAAGAKVVLDNVFATPLLQQGFPLGVDVVVYSGTKHIDGQGRVLGGAILGDREYIDGPVQKLMRHTGPAMSAFNAWVLLKGLETLAIRVQHSNASAQRIAEFLNGHPSVRWVRYPYLPSHPQYDLAKRQMSGGGTVVTFALDCPEDVAKQRAFEVLDKMRLIDISNNLGDAKSLVTHPATTTHRAMGPEGRAAIGLGDGVVRISVGLEDTDDLIADIDRALS”, which protein production is on record?
Answer: The protein production was “not failed”.

Question: For “PLKEQKVINTANITTNSKLDLAEYENGLMNIAKEQFDTENHVLQLNQYIPEKLVDELVAKVKAPVLTNIIEQDYFGKQNSNELSLSGVMIGLAMSSSVSNEEAMSKGTEVANQLIEAIHKNDKYNKSPITFAIFKQESTSSLKNGTYIASATVQKNDTNIGNWNAIEEKAYSYPSDEFTQAHGEDNTKIDDFAKEMKGFSPGDFIPVNAKVSYKKNQMDTLNMNIVIKYNGKTELMALTQLAAQIMLEQLPKDAKVQLQIKSENKIEAIVIKEKNSDKPFV”, which protein production is on record?
Answer: The protein production was “not failed”.

Question: For “MGDQRFDVLITGGTLVDVVTGELRPADIGIVGALIASVHEPASRRDAAQVIDAGGAYVSPGLIDTHMHIESSMITPAAYAAAVVARGVTTIVWDPHEFGNVHGVDGVRWAAKAIENLPLRAILLAPSCVPSAPGLERGGADFDAAILADLLSWPEIGGIAEIMNMRGVIERDPRMSGIVQAGLAAEKLVCGHARGLKNADLNAFMAAGVSSDHELVSGEDLMAKLRAGLTIELRGSHDHLLPEFVAALNTLGHLPQTVTLCTDDVFPDDLLQGGGLDDVVRRLVRYGLKPEWALRAATLNAAQRLGRSDLGLIAAGRRADIVVFEDLNGFSARHVLASGRAVAEGGRMLVDIPTCDTTVLKGSMKLPLRMANDFLVKSQGAKVRLATIDRPRFTQWGETEADVKDGFVVPPEGATMISVTHRHGMAEPTTKTGFLTGWGRWNGAFATTVSHDSHNLTVFGGNAGDMALAANAVIGTGGGMAVASEGKVTAILPLPLSGLVSDAPLEEVARAFEDLREAVGKVVEWQPPYLVFKACFGATLACNIGPHQTDMGIADVLTGKVMESPVIEVLEHHHHHH”, which protein production is on record?
Answer: The protein production was “failed”.

Question: With “MQSPPHDPASALAIRNHYRQSQSRAARLRLLVDTGQELIQLPPEAMRKCVLQRACAFVAMDHGLLLEWGADNGVQTTARHGSKERLSTLETTADPLAIGPQWLERPGTHLPCVLLLPLRGADEGSFGTLVLANSVAISAPDGEDIESLQLLATLLAAHLENNRLLEALVARDRT” as the sequence, how does the protein production read?
Answer: The protein production was “not failed”.

Question: For “MDESVKSLMLPPPPPLLPPSQGYGSRKIDGDSITNKQIKKFWRQKQIIEEDHLYSAIKAAARVRARNLSDEDYKRFEESLDMEDLETEDHQGLKDWWTKSKYAYLNQPALGSADSLKRKRFSTYTPNCFSFKPCNPLYATSLNVF”, which protein production is on record?
Answer: Its protein production is “failed”.

Question: Which protein production does the source give for “MSLDKIRYGIMSTAQIVPRFVAGLRESAQAEVRGIASRRLENAQKMAKELAIPVAYGSYEELCKDETIDIIYIPTYNQGHYSAAKLALSQGKPVLLEKPFTLNAAEAEELFAIAQEQGVFLMEAQKSVFLPITQKVKATIQEGGLGEILWVQSVTAYPNVDHIPWFYSREAGGGALHGSGSYPLQYLQYVLGKEIQEVTGTATYQQGATDSQCNLALKFAEGTLGNIFINVGLKIPSEMTICGTKGQIVIPNFWKTDCAYYTDAQGNTVKWSEQFTSEFTYEINHVNQCLQDKKLTSPVMTKELTIATVKIVESFYQEWFDNEGHHHHHH” here?
Answer: Its protein production is “not failed”.

Question: Which protein production does the source give for “MSAEKSISSDHVPLSDPALKTINRNAGRNLNHIAFISTLGGLLFGVDTGVINGAIGYMATPAELNLSPNNEGLVTSGITLGAAFGAVFAGHLSDRIGRKRLLKYLALLFFVCTLACSLAPNALFMIISRVLLGLAVGGASVIVPTYLSEISTPEIRGRLVTQNELMIVTGQLLAFIVNAILGNWFGHISNIWRYMIGFGMIPAVALFFGMMVVPESPRWLVMVNQLDNAFDSLRKIRSHPETCNEEITQIQDTLNQESEIKQATFKDLSTPWIRRLVFIGIGLGVMQQFIGINIMMYYGTTILTNSGFAHNAALIANIGNGLVSVIATFIGMSIMNRVNRRSMLIAGIIGTTTSLILIVGVSAFLSQSPLLPILVVLCTMMFLGFFQGFISPLVWLLLSEIFPQNLRGLGMGVSTFFLWFANFLVGYFFPILLSAVGMTWTFLIFVFFNILSFIFAYKYAPETRGKSLELIQMEFKYGDTTGINPEDK” here?
Answer: The protein production was “failed”.

Question: For “MIGFLILLFIFVAGFFIMQMLIYRFAKKNIHKYTKIKWFHMWLHMNMKKGPRLDFFDFVVTVLVCIVWKIWLLPFI”, which protein production is on record?
Answer: The protein production was “failed”.

Question: Which protein production does the source give for “MTEITGGTLVLVGADHPVAHLDVTAFEASVTHDVMAASVAGTGLGVSTATAAGLSHLVVDAGVAQPVQGARSVRIRGERGDLRHADAMTPVQVEALLRDGQALGAEASHDGLVCLGEVGVGNTTIATALACAMTGLGPDEAVGLGAGSDTAMVERKAEIIKAALTRTHTDPNDPERLLAALGGPEFAVLAGVCLGAAEAGSPVVLDGLATSVAALIATKFSPGLHGWLVASQASREQVHHIVLAELGLEALMELRMRAGLEHHHHHH” here?
Answer: Its protein production is “failed”.

Question: Which protein production does the source give for “MNTHLKQLIEISHLDKEIDSLEPLIREKRKDLDKALNDKEAKNKAILNLEEEKLALKLQVSKNEQTLQDTNTKIASIQKKMSEIKSERELRSLNIEEDIAKERSNQANREIENLQNEIKHKSEKQEDLKKEMLELEKLVQQLESLVENEVKNIKETQQIIFKKKEELVEKTEPKIYSFYERIRRWAKNTSIVTIKKQACGGCFIRLNDKIYTEVLTSGDMITCPYCGRILYAEG” here?
Answer: The protein production was “failed”.

Question: For “MTIAVTGSIATDHLMRFPGRFSEQLLPEHLHKVSLSFLVDDLVMHRGGVAGNMAFAIGVLGGEVALVGAAGADFADYRDWLKARGVNCDHVLISETAHTARFTCTTDVDMAQIASFYPGAMSEARNIKLADVVSAIGKPELVIIGANDPEAMFLHTEECRKLGLAFAADPSQQLARLSGEEIRRLVNGAAYLFTNDYEWDLLLSKTGWSEADVMAQIDLRVTTLGPKGVDLVEPDGTTIHVGVVPETSQTDPTGVGDAFRAGFLTGRSAGLGLERSAQLGSLVAVLVLESTGTQEWQWDYEAAASRLAGAYGEHAAAEIVAVLA”, which protein production is on record?
Answer: Its protein production is “not failed”.

Question: For “MISANDLSPAELAALLHFHADAGVEWLLEEEAIDRFAEFEAMKAARRPAAQAQQQRPAAGERPAPGQAQVRPNAAVRPAPAERAASGPQPAIPDGEAVQQARFVAETARSLVELKTAIESFNGCNLKHSARSTIFASGDAESGIMVIGSAPSAEDDREGMPFSGKSGQLFDKMLAAIGLTRSAILLTQVIPWRPPGNRAPSAAEMDICRPFIERQIALAEPKAILLLGNFSARFFFGENDTIHGLRGRWKEIAAADCVIPAIASLHPQDLLTAPVNKRLAWNDLLAFQAKLKSLSLLRN”, which protein production is on record?
Answer: Its protein production is “failed”.

Question: Which protein production does the source give for “SIKENSYFAGGVKSLGFNQHGQDVSVGVMLPGEYTFGTQAPERMTVVKGALVVKRVGEADWTTYSSGESFDVEGNSSFELQVKDATAYLCEYL” here?
Answer: Its protein production is “not failed”.

Question: Which protein production does the source give for “MLWTQVYDPFSNITLSAMVAMLPLAILFYMLAVRRAKGHVAAACGLAGAFAATVAVWGMPAGLAVNATLYGVAMGLFPIIWIVLTAVWLYNMTVESGEFEIIKSSLARLTDDRRLQALFIAFAFGAFLEGTAGFGTPVAITAAMLMGLGFSPVYAGGICLIANTAPVAFGALGIPVIVASQVSGLDTLTLSQYVGRQLPVFSLIVPLWMTVVMCGFKRTMEVMPAIVVASVCFSGTQFIFADWHGPTLPDVMAAIVTIVGLLVLLRFWKPARTWHFADEKPEAATGETRHSTGEVLRAWAPYAILAVFVFFWGLGSVKTFLNNIFIMSFEWPGLHAAIAKTAPIVKADAPYAAKFTFNLISAGGTAILFAGLLSVPVMPGYGYGRAFGCLARTCYQLRFPILTIVMILGLAQLMNYSGMSSTLGIAFTHTGALFPFFAPIMGWLGVFLTGSNTSSNALFGSMQHATASAVGVDPYLTVAANATGGVTGKMISPQSISVATASTHTVGQEGALFRFALKHSIAMTLVICVLVTLQAYVIPWMLPAR” here?
Answer: The protein production was “failed”.

Question: Which protein production does the source give for “MAPDNDHFLDSPSPPLLEMRHHQSATENGGGCGEIVEVQGGHIVRSTGRKDRHSKVCTAKGPRDRRVRLSAPTAIQFYDVQDRLGFDRPSKAVDWLITKAKSAIDDLAQLPPWNPADTLRQHAAAAANAKPRKTKTLISPPPPQPEETEHHRIGEEEDNESSFLPASMDSDSIADTIKSFFPVASTQQSYHHQPPSRGNTQNQDLLRLSLQSFQNGPPFPNQTEPALFSGQSNNQLAFDSSTASWEQSHQSPEFGKIQRLVSWNNVGAAESAGSTGGFVFASPSSLHPVYSQSQLLSQRGPLQSINTPMIRAWFDPHHHHHHHQQSMTTDDLHHHHPYHIPPGIHQSAIPGIAFASSGEFSGFRIPARFQGEQEEHGGDNKPSSASSDSRH” here?
Answer: The protein production was “failed”.
